Data set [1] has as its system HIV strain HXB2 in PBMC. Put plainly: microbe, parasite or virus in culture. The following applies: read-out: 50% inhibition concentration (IC50). The procedure:
PBMC were infected with 4000 TCID50/ml of virus and added to serial dilutions of scAB_C2 starting at 2 microM. After 7 days, the amplification of the virus in absence and presence of scAB_C2 was monitored by measuring the viral p24 concentration. The maximal p24 concentration was measured when PBMC and virus were incubated without inhibitory molecules and was set at 100% viral amplification. As controls, the clinically approved T20 (Fuzeon®, Roche) was used, as well as the CXCR4 antagonist, AMD3100 (Mozobile™, Genzyme).

For data set [2], the system named is HIV strain HXB2 in MT4-X4 cells. Put plainly: microbe, parasite or virus in culture. The following applies: read-out: 50% inhibition concentration (IC50). The text has this: The virus used in this assay was the laboratory adapted reference strain HXB2 virus using CXCR4 as co-receptor. Cells were infected with 100 TCID50/ml of virus in the presence of three-fold dilutions of Alphabody starting at 2.5 microM. […] MTT is reduced to formazan by living cells. Solubilization of the formazan crystals results in a colored product that can be measured by spectrophotometry at 540 nm. The cellular toxicity of the Alphabodies was monitored in the same assay using the same read-out, i.e. cell survival. As controls, the clinically approved T20 peptide (Fuzeon®, Roche) was used, as well as the CXCR4 antagonist, AMD3100 (Mozobile™, Genzyme).

Data set [3] in a line: CD thermal denaturation scan in GuHCl. In kind it is physicochemical. The following applies: CD at 222 nm, 11 microM protein in 5 M GuHCl. The procedure: This coding sequence was subcloned into the pET22b vector (Novagen). […] The resulting construct was transformed into the host E. coli strain BL21(DE3) harboring a chromosomal copy of the T7 polymerase gene under control of the lacUV5 promoter (DE3 lysogen). Transformed cells were grown in medium supplemented with ampicillin and protein expression was induced by the addition of IPTG to exponentially growing cultures. Cells containing the expressed Alphabodies were collected by centrifugation and the pellets were resuspended in 50 mM Tris, 500 mM NaCl, pH 7.8. Cells were then disrupted by sonication and spun down for cell debris removal. The cleared supernatants were applied onto a HITrap IMAC HP column (GE Healthcare) loaded with Ni^2+ ions. Bound proteins were eluted by applying an imidazole gradient from 5 to 1000 mM. Alphabody-containing fractions were pooled, concentrated and loaded on a Superdex 75 size exclusion chromatography (SEC) column (GE Healthcare). During this final purification step, the buffer was changed to 50 mM Tris, 150 mM NaCl, pH 7.8.

Data set [4] in a line: Aggregation tendency (visual inspection, OD 340 nm, SEC profiles, SDS-PAGE). Type of data set: physicochemical. The following applies: concentration ranges tested, typically up to 1 μM. The procedure:
(§1) However, for these constructs, subcloning of synthetic genes was performed in the pET16b vector (Novagen), instead of in pET22b, in order to have an N-terminal 10-histidine tag.
as §1

Data set [5] has as its target HIV-1 gp41 HR2-derived biotinylated peptide C36 (HIV-1 HXB2). The data set is described as follows: ELISA, biotinylated peptide on streptavidin plates, sigmoid fit (apparent KD). (In general: An ELISA detects its analyte on a solid surface through an enzyme-linked reagent.)
Where [6] appears, read: PBMC, HXB2 virus, 7 day, viral p24.
The mark [7] stands for this setting: MT4-X4 cells, HXB2 virus, 5 day, cell survival by MTT.

Like-named read-outs stand apart in the source and are kept apart here.

In the case of enfuvirtide, the IC50 in data set [1] (setting [6]) stood at 60 nM; in data set [2] (setting [7]), 6 nM. On to `c1cc(CN2CCCNCCNCCCNCC2)ccc1CN1CCCNCCNCCCNCC1` [AMD3100], for which the IC50 in data set [1] (Human immunodeficiency virus 1, HXB2, PBMC, 168 h) came to 97 nM; in data set [2] (Human immunodeficiency virus 1, HXB2, 120 h) it was 54 nM.

B1: scAB013_C2: gp41 HR2-mimicking Alphabody, SEQ ID No: 69, expressed with C-terminal (His)6 tag (protein)
chain: MSIEEIQKQIAAIQKQIAAIQKQIYRMTGGSSGGSMQMYTIQIQILIIQAQIQQIQNQIELMTLGGSSGGMSIEEIQKQIAAIQKQIAAIQKQIYRMTP
modifications: C-terminal His6 tag; Alphabody ′scAB013_C2′ sequence
Turning to B1, the “transition temperature Tm” value in data set [3] came out at 72 °C. Also, the IC50 in data set [1] (setting [6]) worked out at 218 nM; in data set [2] (setting [7]), 62 nM.

B2: scAB_RsvC2: Alphabody with grafted HRSV HR2-like B-helix, SEQ ID No: 75 (protein)
chain: MSIEEIQKQIAAIQKQIAAIQKQIYRMTGGSGGSGGDVQIKIIQSQIYIIQSDILLIQAQISRMTGSGGGGSGMSIEEIQKQIAAIQKQIAAIQKQIYRMTP
modifications: Alphabody ′scAB_RsvC2′ sequence
Take B2: in data set [4], the tendency to aggregate entry is recorded as “None of the three Alphabodies showed tendency to aggregate”.

B3: scAB_RsvN1: Alphabody with grafted HRSV N-trimer-like binding groove, SEQ ID No: 71 (protein)
chain: SAEIQKIQSAIASTQQAIASLQNAIYVFTGGSGGSGGMSIEEIQKQIAAIQKQIAAIQKQIYRMTGSGGGGSGMSINEIKKQLLAINKQVVAIAQQVSAMSPSR
modifications: Alphabody ′scAB_RsvN1′ sequence
For B3, in data set [4], the tendency to aggregate result is given as “None of the three Alphabodies showed tendency to aggregate”.

B4: Alphabody scAB013_C2 with C-terminal Leu-Glu-(His)6 tag (designed binder)
chain: MSIEEIQKQIAAIQKQIAAIQKQIYRMTGGSSGGSMQMYTIQIQILIIQAQIQQIQNQIELMTLGGSSGGMSIEEIQKQIAAIQKQIAAIQKQIYRMTPLEHHHHHH
For B4, the Kd in data set [5] was more than 10 µM.

B5: scAB_Bis: optimized bispecific single-chain Alphabody binding gp41 HR2 and N-trimer, SEQ ID No: 78 (protein)
chain: MGHHHHHHHHHHSSHIEGRHGSAIQQIQKAIATIQKAIAWIQKKIYMITGGSGGSGGDMAMYAIQIAILIIQAQIQQIQNEIALMTLGSGGGGSGGDIQQIQKQIVAIMKQIVAIVKQISAITP
modifications: Alphabody helix sequence scAB_Bis
B5: in data set [4], the tendency to aggregate entry was “None of the three Alphabodies showed tendency to aggregate”.

B6: scAB_Env03mut: monofunctional control of scAB_Bis with A- and C-helix mutations only, SEQ ID No: 79 (protein)
chain: MGHHHHHHHHHHSSHIEGRHGSAIQQIQKAIATIQKAIAWIQKKIYMITGGSGGSGGGSIEEIQKQIAAIQKQIAAIQKQIYAITGSGGGGSGGDIQQIQKQIVAIMKQIVAIVKQISAITP
modifications: Alphabody helix sequence scAB_Env03mut
Take B6: the tendency to aggregate result in data set [4] is on record as “None of the three Alphabodies showed tendency to aggregate”.

B7: scAB_RsvN2: Alphabody with grafted HRSV N-trimer-like binding groove, SEQ ID No: 72 (protein)
chain: SAAIESTQQAIASIQNAIAVIQQKIYDLTGGSGGSGGMSIEEIQKQIAAIQKQIAAIQKQIYRMTGSGGGGSGMSLLEINKQVVAISQQISAITKQILRMKNTP
modifications: Alphabody ′scAB_RsvN2′ sequence
As to B7, in data set [4], the tendency to aggregate result was “None of the three Alphabodies showed tendency to aggregate”.

B8: scAB013_C2mut: monofunctional control of scAB_Bis with B-helix mutations only, SEQ ID No: 80 (protein)
chain: MGHHHHHHHHHHSSHIEGRHMSIEEIQKQIAAIQKQIAAIQKQIYRMTGGSGGSGGDMAMYAIQIAILIIQAQIQQIQNEIALMTLGSGGGGSGMSIEEIQKQIAAIQKQIAAIQKQIYRMTP
modifications: Alphabody helix sequence scAB013_C2mut
Turning to B8, in data set [4], the tendency to aggregate result is reported as “None of the three Alphabodies showed tendency to aggregate”.

Values taken from patent US20130261049A1, “ALPHABODIES SPECIFICALLY BINDING TO CLASS-I VIRAL FUSION PROTEINS AND METHODS FOR PRODUCING THE SAME” (priority 2011, published 2013).
